Usually stoichiometry N stands for a count of units in the complex or per binding partner.

This assay addresses B.1.1.529 (BA.1) S1 + S2 Trimer-His Recombinant Protein (SARS-CoV-2) (UniProt P0DTC2). Kind of assay: cryo-EM structure.

As for “B.1.1.529 (BA.1) S1 + S2 Trimer-His Recombinant Protein (from UniProt P0DTC2 324-533) (natural protein)”, the stoichiometry N was determined as 3.

Source of the values: doi:10.1101/2023.01.20.524748.
